Experiment: soluble on expression in E. coli; label from the status in PepcDB or PDB records

| Sequence | soluble on expression in E. coli |
| --- | --- |
| MGSDKIHHHHHHMKNFSLWCDFIENSFLDNEFLNLLSHGINGATSNPAIFKNAILNSPIYKDKILKLKEKKTKDIYEELAISDIQKAADKLAPLFYQKNDGFISIEIDPRLHDNTTLSLGEAKRLYSAIGKENIMIKIPATKASYEVMYELMKNGISVNATLIFSLEQSQKCFEALNAGLVEFRKNNIALKEQNTRTPQAVISIFVSRFDRLLNPKAKEQNRIGILNANLAYNNIYSKNEPNIRALFASTGVKGDDLPKDYYIKELLFENSVNTAPLDAIEAFKGKMHFKKPLMNFEIYTELNQIISQSEREKACNDLLSDGLEQFCIAFEDILKAL | not soluble |
| MAFLLKLEPDMQGKVDLFRARIAQEAEDLVSTFFPQKVLELNSRVQELRLQDLSRIHSVPTSEPLATPGNKGDGPNQNLPVLLTQFSIKVPALLGSEGQLLRSNQHLVELTEWVKPEIKLLREKCNTVHM | not soluble |
| MLRSLLIRATAPAVCAGLLWTAAPAHAQSPAPTRPVSSDTWADRATGTYRALQKHLYEGPGDHGLYLEHTPRQATDQEHSYLWPFREAAQAAVDMQRLPRTGPAYRQDAAERFDTAELYHTGGERPGYRSYLPAPLGTGGDVYYDDNAVVALSQLDQYEETGDARYLRRAEQVVPVVSRAWDGDAAKACPGGMDWYDAPGNTIRATNVTALSAQLAARLYEHTRNRAYLDKAEQWYGWVYACMRKAPGLYVNDRGDDGSTNETLWTYNSGAMIGTATALYRGTGDARYLEKAVADARGSLAYWTGGTRLHDQPAVFNAFYFKDLLDLDAVRPDSAYLSAMSAYADNTYRSNRDASSGLFRFQPSNGGDYDPAAPAATLNQSAMVQIFATLADATRRDHRTSLEHHHHHH | not soluble |
| MGSDKIHHHHHHMNINFENHGGNIEKEARQLGLSTENIIDASASIVPFKLPKKLNNYLINSIKNRSIRSYPDSSYFEVRNAISKWHNIEPSMILPGNGASELFTWAARDASLNGISSLPSPGFGDYQRALKCWNATYVHNPLPLSWTNNNPQSFPIEPKANVLWITNPHNPTGQLWSRSSIENLLANYKLVICDEAFISLVPGGESQSIIDLTNIYKNLIVIRSLTKFLGIAGLRVGYAVTNSDRLLKWKEIRDPWPVNTLAINATKMIMKDSKMHKKRLNKIHRWVEKEGKWLYQSLSSFSTIKPLPSTTNFQLIKSESSILNLLENLKKRGILLRDCRSFINLDEKWFRISLLKREQNIQIINTLKDYIN | not soluble |
| MRGSHHHHHHGSAHGLTDDMTMHFRMEGCVDGHKFVIEGNGNGNPFKGKQFINLCVIEGGPLPFSEDILSAAFDYGNRLFTEYPEGIVDYFKNSCPAGYTWHRSFRFEDGAVCICSADITVNVRENCIYHESTFYGVNFPADGPVMKKMTTNWEPSCEKIIPINSQKILKGDVSMYLLLKDGGRYRCQFDTIYKAKTEPKEMPDWHFIQHKLNREDRSDAKNQKWQLIEHAIASRSALP | soluble |
| MNTFGTRLKFTSFGESHGVAVGCIIDGMPAGVKFDEEFLQNELDKRKGGSKFATPRKESDKAQVLSGVFEGYTTGHPIAIVVFNENAHSKDYDNLKDLFRPAHADFTYFYKYGIRDHRGGGRSSARESVARVAGGAVAAMLLREFDICVQSGVFGVGTFVSNLKEEEFDFEFAKKSEIFCLDPKLESDFKNEILNARNSKDSVGAAVFTKVSGMLIGLGEVLYDKLDSKLAHALMGINAVKAVEIGEGINASKMRGSCNNDALKDGKFLSNHSGGILGGISNGENLILKTYFKPTPSIFAKQESIDKFGNNLKFELKGRHDPCVGVRGSVVASAMVRLVLADCLLLNASANLNNLKNAYGLKLEHHHHHH | soluble |
| MDGDFRTDFVREPGALKHHPALVLNADYRPLSYYPLSLWPWQEAIKAAWLDRVDIIAEYDEVVRSPSVVLRIPSVVVLKDYVKPQKRVAFTRFNLFLRDEFRCQYCGGKGDLTFDHVVPRAAGGVTSWENVVAACAPCNLRKGSKSLRQANMSLRRPPRRPQAEELQNVGRKFPPNHLHESWMDFLYWDAELDALEHHHHHH | not soluble |
| MNMDVNAVKNSTRGKHWFNLLTQGFNLIASGIDSLLIAEGQLGENKISVFCVVPDSHNHFPRARQGEVGLLEGWSLAQAIDQIIESDQNLTHKRGILCIVDVPSQAYGRREELLGIHQALAAAADSYVRARLAGHPVVSLLVGKSMSGAFLAHGYQANRILALKDQGVMVHAMGKESAARVTLRTVDELENLAANIPPMAYDIESYNSLGLLSGLLNVSHADHPTTSDIDYIQQTLSQTFQEIRNQGTSDLKHRLSAKNREASVHVRELLREQWS | not soluble |

— the DeepSol protein solubility set
